Results reported in paper doi:10.1101/2024.12.01.626218.

Molecular target: TTF2 1-100 (UniProt Q5NC05)
Test: isothermal titration calorimetry
Conditions: reference: unphosphorylated TRAIP 313-329 peptide; sites T325

binding against the reference: gained
Substance: TRAIP 313-329 (from UniProt Q8VIG6) pT325 TRAIP 313-329 peptide
